In a protein production outcome set (Wang et al. 2014) one finds protein production data, which are given here for nine sequences.

A short description of the data set: label from the status in PepcDB records.
On to “MQICDSYNQKNSLFNAMNRFIGAVNNMDQTVMVPSLLRDVPLDQEEEKEVTSFQDGDMYGSYVLLKSIRNDIEWGVLQAEERRKEKHGVTTTSLEVSRIEPNDKDLEKLFHYHLSGLHTVLAKLTRKANTLTNRYKQEIGIGGCGN”, for which the protein production result is recorded as “failed”.
For “MQIFLLFLSFAKAIHKIILIYGETAFPTVCSALQIYSLMKLKTLICATTAFWACCSCTSGELSPVDYVDPFIGTGFHGHTYPGATVPFGAVQLSPDTRAGNWDACSGYHYNDTTLKGFSHTHLSGTGCIDLGDILFRPTTLKPDLTTESIYQPAAFSHKDEDASAGYYSVVLKEEGIKAELTVTAHAGMHRYTFSSGKEASIIIDLTHLLDNEYIYEAELEQTAANEITGMRRTRGWTDNQYVYFVAQFSKPFQAIDFIQNKKMVSAGVKLNGTDLQACLSFDNSNGEPVIAKVGLSIVSEKNARENLETEVIGFDFDAVRSAARSAWEQALSAITVKGGNTDDLKNFYTAMYHSMVVPNVVSDVNGEYRRHNMEIGQLPKGKVQYSTFSLWDTFRAWNPLMTLIDTTLVNNMINSFLDIYESSGELPIWPLSAGETGTMIGYHAVSVIADAYMKGIRGFDAEKALEAMVVSSEKNKKGADYYIQNGFIPSNIKKESISCLLEFAYDDWCIARMAQEMGKDDIYQKYIQRSQNYINVFDGNTKFFRPKRMDGNWETPFNPIEIGRAYTEATAWQYRFFVPHDVSGMAQLFGGKKEFITALDSIFTVESDVHGDLVDITGLIGQYVHGNEPSHHIAYLYDYVGQPWKTQEMTRRLLHEMYAPTPEGIIGNEDCGQMSGWYILSSLGIYSVCPGSNEFALTTPLFEKAVVNLANRKTLTILANNPKKNVYITKVELNGQPIDVNFITYAQLMEGGELRFTLSDKPNMERGVSSEASPYSYTKDEVVSIPYVDKDLNLFMDKVTVALATTTKDAEIRYTLDGSEPTEQSALYEQPFELDKTTLIKAKGFKEGLRSSRTLSISATKAELKAALSVNPTQNGTSYKYFEGTYQKVADVEKSPLLESGVMPEPSIKGAKQEDHFGYIFSGLINVPEDGVYTFQTRSDDGSVLYIHDEQVVNNDASHAAIPATGMVALKKGFHPYKLYYFEDYEGEYLSWAWKLPSAEKLAPIPASALFVK” the value was “failed”; for “MQITAAAQHDYQQAIAAYQAGEFEAAIAQLDRLLGDVPDWAAALGLQGLCYYCCDQRETGITLLRRAIALDPTDPTHFNNLGNLLQRQGHLTEALERLTQALAIDPTHVAARFNRAITLQKLGDPATALQDYQQLLEADPDNPEIRYNSAHAALAIGDWDFGLPAYEARCQQLQHFPEIEASLKLPRWQGQDLDQQTLLVWGEQGFGDRLMGARWIPLLRQRYPQARIVWQTSPSLVRLFQTLADDRLMVLAEGAELPVCDWQVPLLSLMLIFQSDRNRLPWHGPYFFPHKGDFLPASDRPRLGLVWSAGRNPAQSAEFAANKSCPLALLWSVLSVSGWDVVSLQVDEARQDLQTLSDPLLDLGSEIGDFQDTVDRLAHLDLLITVDTAIAHLGGMIGLPTWVLLPAVPDWRWELSGATTPWYPSLRLFRQPSPGDWSGAIAELQTALAEFQPAPQHWDYRGELSIADWIQAADRAFTAQNWPRAEWLIRQAVAIAPEEPSFHRALGRSLKQQGDYAGAAQALAIACELAPTQAEFWHERSSLEYYDNQLTAALNSLNQAIALQGATADHLISRGVLHYRLGQFPESCADYDAAAAIAPESPLLRCNRGFLQLHWGNWLQGWPDLEVRFDFQSDLDPFQYRQLAPAWQGEPLGQQTLLIWGEQGLGDHLLFCRWLPELRLQHPQAQLIFVTDPLLERLMQQLADDRLQICCLDEPVPACDRQVALMSLPAIAQTTPATVPWRGAYFQSSMPPLRCAETLQVGFVWASGKRSSPETARLYREKSCPLNELLPALLAVPAVDYYSFQVGADVAELQPWLEQSDRLFDLSEQLQDFQDTADWLAEMDVLISVDTAVANLAGMMALPVWTLLPEPANWRWGLTGHTTPWYPSMRLYRQTQRGNWSGAIAQIQQDLQQLSRDRDCLVT”, “failed”; for “MQKIALCITGASGVIYGIKLLQVLEELDFSVDLVISRNAKVVLKEEHSLTFEEVLKGLKNVRIHEENDFTSPLASGSRLVHYRGVYVVPCSTNTLSCIANGINKNLIHRVGEVALKERVPLVLLVREAPYNEIHLENMLKITRMGGVVVPASPAFYHKPQSIDDMINFVVGKLLDVLRIEHNLYKRWRG”, “not failed”.
Next, “MQKQLLLGVEAIAQAALDAGISGVYAYPGTPSTEITEHIQNSRMAKERNVHREWAANEKTAMESALGMSYAGKRALVCMKHVGMNVAADCFMNAAITGANGGMVIVAADDPSMHSSQNEQDSRVYGQFAMIPVMEPSNQQEAYDMTRLAFDLSERLGTPVMMRITTRLAHSRAGVVQTEPIGENELHLPEDKRQYVLLPGIAKKRYRILLDKQTDFVRESENSPYTEYVDAADKSKGIVACGIAYNYLMEAFKAQVPYPVLKVTQYPIPHKQMERLLNECGDIVVMEEGYPVVEQLLKGFPGLERIKGRLDGTLPRDGELNPDHVAKAFNIPVVEGEPIPDLVAARPPALCKGCSHRDVYDALNEVLTEYPNGRVFSDIGCYTLGALPPYEAINSCVDMGASITMAKGAADAGLFPAVSVIGDSTFTHSGITGLLDAINENSNITVIISDNESISMTGGQHSSAYGKVEAICRGIGVDPDHIRELLPVPKNHDELCSIIREEINYEGVSVIIPRRVCIQKHARDAKAAKRAKAKE”: “not failed”; “MQKSEGSGGTQLKNRATGNYDQRTSSSTQLKHRNAVQGSKSSLSTSSPESARKLHPRPSDKLNPKTINPFGEQSRVPSAFAAIYSKGGIPCRLVHGSVKHRLQWECPPESLSFDPLLITLAEGLRETKHPYTFVSKEGFRELLLVKGAPEKAIPLLPRLIPVLKAALVHSDDEVFERGLNALVQLSVVVGPSLNDHLKHLLTSGSLSIIKSKIPTYCSICC”: “failed”.
For “MQKTLTSAIDIPEQMQNDWQNMLDILSNVINVPAALIMRIYDNDIKVFSSSSSTENPYIKGATEKLNQGLYCETVIEERQELTVFNALVDPEWRSNPDLKQNMIAYCGLPLYWPDNTPFGTLCILDKKENHFSPTYQKLMKTYQHSIEAQLNTLYQHADLLNRHQELQAEVARTTQHLNEINIKLSNEIDCRRAAEQKVEYHKNHDVNTGFLNPIAIHKHVDSLIKSETKFVLLHIHFANSRKIQQEYGYQAFDSLLIEYRSKLTKITDTSVTGRLGSSDILLIIQTDKEKLPQLCQHLSEIGQANYTANEQSLHLQTYVGAVHSKEGISRSDLLQFAYDTVVKCQSLGKTFTIADVSLPTQSSLSEHKIERYLLEAVRNHDLFLNYQPKVCPVNKKWIGCEALLRWNHPHLGAIANDVLIQLAERNGLIYELGNFALRNAIQQASEWILHSPNFVMAVNISAVQLKDPHFVTHIKQLLSLYQLPSKNLELEVTESGLISDEPLAITTLSQLNNMGISIALDDFGTGYASFQYLKKYPFSSLKIDKSFIANIEQNEDDQNIVCAMINIAKKLQLKVVVEGVENQNQEAFVVKEGIDLIQGYLYSKPISATDFEEGLFNQSSIGTPYFHFV” the value was “failed”.
Turning to “MQLFHKTVNRRGTHSIKWDTYKNEELIHAWIADMDFEVPQPIQTALKKRIEHPIFGYTLPPENIGDIICNWTKKQYNWDIQKEWIVFSAGIVPALSTSIQAFTKENESVLVQPPIYPPFFEMVTTNNRQLCVSPLQKQNDTYAIDFEHLEKQFQQGVKLMLLCSPHNPIGRVWKKEELTKLGSLCTKYNVIVVADEIHSDIIYADHTHTPFASLSEELAARTITCMAPSKTFNIAGLQASIIIIPNEKLRQAFTSIQYRQGFHGLNIFAYTAMQSAYTECNDWLNEIRFYIEDNAKFACEYIKDHIPTLSVMKPEGSFLLWIDCSALNLSQDERTKLLEEKGKIIVEPGEKYGLGGEEHIGINIGCPRSVLEEILNRLRHTFS”, the protein production result is given as “not failed”.
For the sequence “MQLGFAMLADPILLITILLGFAMAWAIGANDAANSMSTAVGAGAITPRQAVIIAGVLEFMGAYFFGKTVTETIRKGIIDPSKITDPNVLIFGSIAALIGATIWLVIATKYGLPVSTTHSIIGGIVGYGIVYGGMSIVNWDKMIKVVLSWILSPIVGAIFAYLVFRALSKTVLQSKDPVKSAKRWSPFWIGLAFVVIGTMFYIKVLHGNSLLEGFLKYGMPAGILTFIVVSLILEKRFPATDPYLGAERVFRRVQVITSAYVALAHGANDVANAIGPVAAVYTVAMFGLAGAKVPVPRWILALGGLGIAIGVATYGYKVMETVGKKITELTNTRGFTIDFSAATVVLIASWLGMPISTTHTVVGAVIGVGLARGIKAINKDIVKDIIISWFVTVPAAGVIAGIIFKALMMLMG”, the protein production entry was “failed”.
